According to patent US10704030B2, “P450-BM3 variants with improved activity” (Codexis, Inc., priority 2015, dated 2020):
Changes are numbered by the printed parent chain. In names and notes the source's numbering stands.

Legend:
Format in all cases: biochemical
[1] = Validation of generalist properties: oxidation of loratadine by lyophilized P450-BM3 variant, UPLC-MS; details: [Loratadine] = 1 mM; for TON: TON = [substrate]*% conversion/[P450]; for FIOPC (D06): fold improvement over parent MCYP-P1.2-D06
Method in brief: (§1)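 Lyophilized lysate of E. coli-expressed P450-BM3 variant (stock standardized to 12 μM heme) was incubated 24 h at 30 °C with 1 or 2 mM substrate, 1.0 mM NADP+, 25 mM glucose, 0.5 mg/mL glucose dehydrogenase and 5% DMSO in 100 mM potassium phosphate. Acetonitrile-quenched samples were analyzed by UPLC-MS (positive ESI).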

[2] = Validation of generalist properties: oxidation of diclofenac by lyophilized P450-BM3 variant, UPLC-MS; details: [Diclofenac] = 1 mM; for TON: TON = [substrate]*% conversion/[P450]; for FIOPC (D06): fold improvement over parent MCYP-P1.2-D06
Method in brief: as §1

[3] = Validation of generalist properties: oxidation of gefitinib by lyophilized P450-BM3 variant, UPLC-MS; details: [Gefitinib] = 1 mM; for TON: TON = [substrate]*% conversion/[P450]; for FIOPC (D06): fold improvement over parent MCYP-P1.2-D06
Method in brief: as §1

[4] = Validation of generalist properties: oxidation of imatinib by lyophilized P450-BM3 variant, UPLC-MS; details: [Imatinib] = 1 mM; for TON: TON = [substrate]*% conversion/[P450]; for FIOPC (D06): fold improvement over parent MCYP-P1.2-D06
Method in brief: as §1

[5] = fold improvement over parent MCYP-P1.2-B12

B1: SEQ ID NO: 12: P450-BM3 parental backbone from the commercially available MCYP panel (MCYP-0343; Codexis) (protein)
chain: MTIKEMPQPKTFGELKNLPLLNTDKPVQALMKIADELGEIFKFEAPGCVTRYLSSQRLIKEACDESRFDKNLSQALKFSRDFAGDGLFTSWTHEINWKKAHNILLPSFSQQAMKGYHAMMVDIAVQLVQKWERLNADEHIEVSEDMTRLTLDTIGLCGFNYRFNSFYRDQPHPFIISMVRALDEVMNKLQRANPDDPAYDENKRQCQEDIKVMNDLVDKIIADRKARGEQSDDLLTQMLNGKDPETGEPLDDGNISYQIITFLIAGHETTSGLLSFALYFLVKNPHVLQKVAEEAARVLVDPVPSYKQVKQLKYVGMVLNEALRLWPTAPAFSLYAKEDTVLGGEYPLEKGDEVMVLIPQLHRDKTIWGDDVEEFRPERFENPSAIPQHAFKPFGNGQRACIGQQFALHEATLVLGMMLKHFDFEDHTNYELDIKETLTLKPEGFVVKAKSKKIPLGGIPSPSTEQSAKKVRKKAENAHNTPLLVLYGSNMGTAEGTARDLADIAMSKGFAPQVATLDSHAGNLPREGAVLIVTASYNGHPPDNAKQFVDWLDQASADEVKGVRYSVFGCGDKNWATTYQKVPAFIDETLAAKGAENIADRGEADASDDFEGTYEEWREHMWSDVAAYFNLDIENSEDNKSTLSLQFVDSAADMPLAKMHGAFSTNVVASKELQQPGSARSTRHLEIELPKEASYQEGDHLGVIPRNYEGIVNRVTARFGLDASQQIRLEAEEEKLAHLPLAKTVSVEELLQYVELQDPVTRTQLRAMAAKTVCPPHKVELEALLEKQAYKEQVLAKRLTMLELLEKYPACEMKFSEFIALLPSIRPRYYSISSSPRVDEKQASITVSVVSGEAWSGYGEYKGIASNYLAELQEGDTITCFISTPQSEFTLPKDPETPLIMVGPGTGVAPFRGFVQARKQLKEQGQSLGEAHLYFGCRSPHEDYLYQEELENAQSEGIITLHTAFSRMPNQPKTYVQHVMEQDGKKLIELLDQGAHFYICGDGSQMAPAVEATLMKSYADVHQVSEADARLWLQQLEEKGRYAKDVWAG
modifications: P450_BM3
[1]
  % Conv.: + (0-5.00)
  TON: ‡‡ (1001-5000)
[2]
  % Conv.: + (0-5.00)
  TON: ‡‡ (1001-5000)
[3]
  % Conv.: + (0-5.00)
  TON: ‡ (0-1000)
[4]
  % Conv.: ++ (5.01-10.00)
  TON: ‡‡ (1001-5000)

B2: Variant 5: P450-BM3 variant of SEQ ID NO: 10: C48S; I95P; G115R; L216Y; S231R; D232H; M491A; N574T; T577A; E619D; D722S (protein)
chain: MTIKEMPQPKTFGELKNLPLLNTDKPVQALMKIADELGEIFKFEAPGSVTRYLSSQRLIKEACDESRFDKNLSQALKFARDFAGDGLATSWTHEPNWKKAHNILLPSFSQQAMKRYHAMMVDIAVQLVQKWERLNADEHIEVSEDMTRLTLDTIGLCGFNYRFNSFYRDQPHPFIISMVRALDEVMNKLQRANPDDPAYDENKRQCQEDIKVMNDYVDKIIADRKARGEQRHDLLTQMLNGKDPETGEPLDDGNISYQIITFLIAGHETTSGLLSFALYFLVKNPHVLQKVAEEAARVLVDPVPSYKQVKQLKYVGMVLNEALRLWPTAPAFSLYAKEDTVLGGEYPLEKGDEVMVLIPQLHRDKTIWGDDVEEFRPERFENPSAIPQHAFKPFGNGQRACIGQQFALHEATLVLGMMLKHFDFEDHTNYELDIKETLTLKPEGFVVKAKSKKIPLGGIPSPSTEQSAKKVRKKAENAHNTPLLVLYGSNAGTAEGTARDLADIAMSKGFAPQVATLDSHAGNLPREGAVLIVTASYNGHPPDNAKQFVDWLDQASADEVKGVRYSVFGCGDKTWAATYQKVPAFIDETLAAKGAENIADRGEADASDDFEGTYEEWRDHMWSDVAAYFNLDIENSEDNKSTLSLQFVDSAADMPLAKMHGAFSTNVVASKELQQPGSARSTRHLEIELPKEASYQEGDHLGVIPRNYEGIVNRVTARFGLSASQQIRLEAEEEKLAHLPLAKTVSVEELLQYVELQDPVTRTQLRAMAAKTVCPPHKVELEALLEKQAYKEQVLAKRLTMLELLEKYPACEMKFSEFIALLPSIRPRYYSISSSPRVDEKQASITVSVVSGEAWSGYGEYKGIASNYLAELQEGDTITCFISTPQSEFTLPKDPETPLIMVGPGTGVAPFRGFVQARKQLKEQGQSLGEAHLYFGCRSPHEDYLYQEELENAQSEGIITLHTAFSRMPNQPKTYVQHVMEQDGKKLIELLDQGAHFYICGDGSQMAPAVEATLMKSYADVHQVSEADARLWLQQLEEKGRYAKDVWAG
modifications: P450_BM3
notes: I95P; G115R; L216Y; S231R; D232H; M491A; N574T; T577A; E619D; D722S
[1]
  % Conv.: ++++ (15.01-20.00)
  TON: ‡‡‡‡ (10000-50000)
[1]; [5]
  FIOPC (B12): * (0.0-3.0)
[2]
  % Conv.: ++++ (15.01-20.00)
  TON: ‡‡‡‡ (10000-50000)
[2]; [5]
  FIOPC (B12): * (0.0-3.0)
[3]
  % Conv.: ++++ (15.01-20.00)
  TON: ‡‡‡‡ (10000-50000)
[3]; [5]
  FIOPC (B12): *** (5.01-10.0)
[4]
  % Conv.: ++++ (15.01-20.00)
  TON: ‡‡‡‡ (10000-50000)
[4]; fold improvement over parent MCYP-P1.2-B02
  FIOPC (B02): *** (5.01-10.0)

B3: Variant 13: P450-BM3 variant of SEQ ID NO: 12: K32R; C48S; Y52F; I95P; G115R; D232H; M491A; N574T; T577A; E619D; A627S; D722S (protein)
chain: B2 chain with K32R, Y52F, A79S, A88F, Y216L, R231S, A627S
modifications: P450_BM3
notes: C48S; Y52F; I95P; G115R; D232H; M491A; N574T; T577A; E619D; A627S; D722S
[1]
  % Conv.: + (0-5.00)
  TON: ‡‡ (1001-5000)
  FIOPC (D06): * (0.0-3.0)
[2]
  % Conv.: ++++ (15.01-20.00)
  TON: ‡‡‡ (5001-10000)
  FIOPC (D06): *** (5.01-10.0)
[3]
  % Conv.: + (0-5.00)
  TON: ‡‡ (1001-5000)
  FIOPC (D06): **** (10.01-15.00)
[4]
  % Conv.: ++++ (15.01-20.00)
  TON: ‡‡‡‡ (10000-50000)
  FIOPC (D06): *** (5.01-10.0)

B4: Variant 12: P450-BM3 variant of SEQ ID NO: 12: K32R; C48S; Y52F; I95P; Q111R; G115R; D232H; M491A; T577A; A627S; D722S (protein)
chain: B2 chain with K32R, Y52F, A79S, A88F, Q111R, Y216L, R231S, T574N, D619E, A627S
modifications: P450_BM3
notes: C48S; Y52F; I95P; Q111R; G115R; D232H; M491A; T577A; A627S; D722S
[1]
  % Conv.: ++ (5.01-10.00)
  TON: ‡‡ (1001-5000)
  FIOPC (D06): * (0.0-3.0)
[2]
  % Conv.: +++ (10.01-15.00)
  TON: ‡‡‡ (5001-10000)
  FIOPC (D06): ** (3.01-5.0)
[3]
  % Conv.: + (0-5.00)
  TON: ‡ (0-1000)
  FIOPC (D06): * (0.0-3.0)
[4]
  % Conv.: ++++ (15.01-20.00)
  TON: ‡‡‡‡ (10000-50000)
  FIOPC (D06): *** (5.01-10.0)
